One protein from publication PMC4618611, “IscR of Rhodobacter sphaeroides functions as repressor of genes for iron-sulfur metabolism and represents a new type of iron-sulfur-binding protein” (MicrobiologyOpen, 2015) can be followed below.

Where “and” joins values, the source holds several entries; their conditions need not be identical. Equal values may be shown once.

This data set concerns the molecule itself. As to the kind of experiment: SEC; gel filtration of the purified protein on a Superdex 200 16/60 column; aerobic conditions; data not shown. Background: Size exclusion chromatography separates by hydrodynamic size, large species first.

B1: IscR of Rhodobacter sphaeroides (His-tagged recombinant IscR) (natural protein, UniProt Q3J0R9 1-155, looked up)
chain: MKLSTKGRYAMVALVDLALAQKSGNELVSLAEVSKRQDISLPYLEQLFVKLRRAGLVEAVRGPGGGYKLARPAESIRVSEIMEAVEETVNAMHTGAGASGGVSGSRAQSLTNRLWEGLSAHVYVFLHQTRLSDIIKNEMRPCPAVPALFRVVDED
notes: IscR, Rhodobacter sphaeroides 2.4.1, locus RSP_0443 (KEGG), 155 amino acid residues; the coding region of iscR was amplified and cloned into pQE30; also called His-tagged IscR; RSP_0443; source: E. coli M15 (pQE30::iscR), overexpressed, purified (Ni-NTA)
On to B1, for which the “stoichiometry N” value was 2 and 4.

As a reminder, the stoichiometry N is the number of molecules, sites or subunits per partner or assembly.
